Measured values published in patent US9206432B2, “Sulfonylurea-responsive repressor proteins” (priority 2008, dated 2015).
Where two headings read alike, the source gives them in different places.

Test system: lacZ under control of the tetA promoter (PtetA) in E. coli KM3
Format: cell-based
Settings: for relative β-galactosidase activity, inducer atc: anhydrotetracycline (0.4 μM)
[1] = Table 4, chlorimuron 20 ppm, 48 hrs at 30° C.
[2] = Table 4, chlorsulfuron 20 ppm, 48 hrs at 30° C.
[3] = Table 4, ethametsulfuron 20 ppm, 48 hrs at 30° C.
[4] = Table 4, metsulfuron 20 ppm, 48 hrs at 30° C.
[5] = Table 4, nicosulfuron 20 ppm, 48 hrs at 30° C.
[6] = Table 4, rimsulfuron 20 ppm, 48 hrs at 30° C.
[7] = Table 4, sulfometuron 20 ppm, 48 hrs at 30° C.
[8] = Table 4, thifensulfuron 20 ppm, 48 hrs at 30° C.
[9] = Table 4, tribenuron 20 ppm, 48 hrs at 30° C.
[10] = Table 6, reverse repressor hits
[11] = Table 6, reverse repressor hits, chlorimuron, same plate assay format (20 ppm)
[12] = Table 6, reverse repressor hits, chlorsulfuron, same plate assay format (20 ppm)
[13] = Table 6, reverse repressor hits, ethametsulfuron, same plate assay format (20 ppm)
[14] = Table 6, reverse repressor hits, metsulfuron, same plate assay format (20 ppm)
[15] = Table 6, reverse repressor hits, nicosulfuron, same plate assay format (20 ppm)
[16] = Table 6, reverse repressor hits, rimsulfuron, same plate assay format (20 ppm)
[17] = Table 6, reverse repressor hits, sulfometuron, same plate assay format (20 ppm)
[18] = Table 6, reverse repressor hits, thifensulfuron, same plate assay format (20 ppm)
[19] = Table 6, reverse repressor hits, tribenuron, same plate assay format (20 ppm)

| Molecule | relative β-galactosidase activity, inducer Ci [1] | relative β-galactosidase activity, inducer Cs [2] | relative β-galactosidase activity, inducer Es [3] | relative β-galactosidase activity, inducer Ms [4] | relative β-galactosidase activity, inducer Ns [5] | relative β-galactosidase activity, inducer Rs [6] | relative β-galactosidase activity, inducer Sm [7] | relative β-galactosidase activity, inducer Ts [8] | relative β-galactosidase activity, inducer Tb [9] | relative β-galactosidase activity, inducer atc [10] | relative β-galactosidase activity, inducer Ci [11] | relative β-galactosidase activity, inducer Cs [12] | relative β-galactosidase activity, inducer Es [13] | relative β-galactosidase activity, inducer Ms [14] | relative β-galactosidase activity, inducer Ns [15] | relative β-galactosidase activity, inducer Rs [16] | relative β-galactosidase activity, inducer Sm [17] | relative β-galactosidase activity, inducer Ts [18] | relative β-galactosidase activity, inducer Tb [19] |
| --- | --- | --- | --- | --- | --- | --- | --- | --- | --- | --- | --- | --- | --- | --- | --- | --- | --- | --- | --- |
| L1-20: SU-responsive TetR(B) variant, library L1 hit, SEQ ID NO: 6 (protein, Sulfonylurea responsive repressor L1-20) MGSRLDKSKVINSALELLNEVGIEGLTTRKLAQKLGVEQPTLYWHVKNKRALLDALAIEMMDRHQTHFCPLEGESWQDFLRNNAKSMRCALLSHRDGAKVFLGTAWTEKQYETVENLLAFLCQQGFSLENALYALNAVATFTLGCVLWDQEKQVAKEERETPTTDSMPPLLRQAHELGDHQGAEPAFLFGLELIICGLEKQLKSESGS | 13.5 | 22.0 | 15.0 | 12.4 | 1.6 | 2.0 | 6.0 | 2.6 | 2.6 |  |  |  |  |  |  |  |  |  |  |
| L1-39: library L1 hit with reverse repressor activity (SEQ ID NO: 1206-1213) (protein, rSuR L1-39) MGSRLDKSKVINSALELLNEVGIEGLTTRKLAQKLGVEQPTLYWHVKNKRALLDALAIEMMDRHQTHFCPLEGESWQDFLRNTAKSYRCALLSHRDGAKVILGTRWTEKQYETRENVLAFLCQQGFSLENALYAWAAVGPFTLGCVLRDQERQVAKEERETPTTDSMPPLLRQALELMDHQGAEPAFLFGLELIICGLEKQLKCESGS |  |  |  |  |  |  |  |  |  | 4.92 | 0.49 | 0.89 | 0.60 | 0.75 | 3.03 | 4.72 | 0.91 | 1.42 | 0.97 |
| L1-21: library L1 hit with reverse repressor activity (SEQ ID NO: 1206-1213) (protein, rSuR L1-21) MGSRLDKSKVINSALELLNEVGIEGLTTRKLAQKLGVEQPTLYWHVKNKRALLDALAIEMLDRHATHFCPLEGESWQDFLRNNAKSFRCALLSHRDGAKVCLGTAGTEKQYETLENCLAFLCQQGFSLENALYARSAVVCFTLGCVLFDQEMQVAKEERETPTTDSMPPLLRQAAELLDHQGAEPAFLFGLELIICGLEKQLKCESGS |  |  |  |  |  |  |  |  |  | 2.81 | 0.07 | 0.89 | 0.61 | 0.89 | 2.74 | 2.31 | 2.39 | 0.79 | 2.13 |
| L1-18: library L1 hit with reverse repressor activity (SEQ ID NO: 1206-1213) (protein, rSuR L1-18) MGSRLDKSKVINSALELLNEVGIEGLTTRKLAQKLGVEQPTLYWHVKNKRALLDALAIEMLDRHLTHFCPLEGESWQDFLRNNAKSMRCALLSHRDGAKVWLGTGFTEKQYETKENRLAFLCQQGFSLENALYAIRAVSRFTLGCVLQDQEPQVAKEERETPTTDSMPPLLRQAVELFDHQGAEPAFLFGLELIICGLEKQLKCESES |  |  |  |  |  |  |  |  |  | 2.35 | 0.36 | 1.22 | 0.37 | 0.79 | 1.44 | 2.55 | 0.94 | 1.13 | 1.65 |
| L1-41: library L1 hit with reverse repressor activity (SEQ ID NO: 1206-1213) (protein, rSuR L1-41) MGSRLDKSKVINSALELLNEVGIEGLTTRKLAQKLGVEQPTLYWHVKNKRALLDALAIEMLDRNQTHFCPLEGESWQDFLRNNAKSWRCALLSHRDGAKVMLGTRNTEKQYETAENGLAFLCQQGFSLENALYACRAVWTFTLGCVLDDQETQVAKEERETPTSDSMPPLLRQAMELKDHQGAEPAFLFGLELIICGLEKQLKCESGS |  |  |  |  |  |  |  |  |  | 4.21 | 0.39 | 0.61 | 0.18 | 0.56 | 2.75 | 4.05 | 0.67 | 1.46 | 1.41 |
| L1-36: library L1 hit with reverse repressor activity (SEQ ID NO: 1206-1213) (protein, rSuR L1-36) MGSRLDKSKVINSALELLNEVGIEGLTTRKLAQKLGVEQPTLYWHVKNKRALLDALAIEMADRHHTHFCPLEGESWQDFLRNAAKSMRCALLSHRDGAKVRLGTAWTEKQYETHENVLAFLCQQGFSLENALYALKAVSGFTLGCVLKDQEMQVAKEERETPTTDSMPPLLRQATELVDHQGAEPAFLFGLELIICGLEKQLKCESGS |  |  |  |  |  |  |  |  |  | 1.70 | 0.21 | 0.24 | 0.20 | 0.38 | 1.81 | 1.84 | 0.50 | 0.48 | 0.57 |
| L1-7: SU-responsive TetR(B) variant, library L1 hit, SEQ ID NO: 4 (protein, Sulfonylurea responsive repressor L1-07) MGSRLDKSKVINSALELLNEVGIEGLTTRKLAQKLGVEQPTLYWHVKNKRALLDALAIEMLDRHNTHFCPLEGESWQDFLRNNAKSWRCALLSHRDGAKVVLGTAITEKQYETHENPLAFLCQQGFSLENALYAIAAVRRFTLGCVLVDQERQVAKEERETPTTDSMPPLLRQASELQDHQGAEPAFLFGLELIICGLEKQLKCERGS | 16.5 | 3.1 | 0.1 | 0.2 | 0.1 | 0.2 | 6.4 | 0.1 | 0.2 |  |  |  |  |  |  |  |  |  |  |
